How the values were obtained:
THRa:RXRa = THRa:RXRa (Homo sapiens, UniProt P10827;P19793 full;full); assay: no ligand; PBM; 90 nM : 90 nM RXRa; PBS pH 7.4, 2% milk, 0.02% Triton X-100, 1 mM DTT, BSA, 0.4 mg/ml salmon testes DNA; details: tags: His kept;His cleaved; copies: 1;1; label: surface-attached array probe
RARa:RXRa = RARa:RXRa (Homo sapiens, UniProt P10276;P19793 full;full); assay: no ligand; PBM; 270 nM : 90 nM RXRa; PBS pH 7.4, 2% milk, 0.02% Triton X-100, 1 mM DTT, BSA, 0.4 mg/ml salmon testes DNA; details: tags: His kept;His cleaved; copies: 1;1; label: surface-attached array probe
RARa:RXRa, sequence (P10276 whole entry, chain 1 of 2): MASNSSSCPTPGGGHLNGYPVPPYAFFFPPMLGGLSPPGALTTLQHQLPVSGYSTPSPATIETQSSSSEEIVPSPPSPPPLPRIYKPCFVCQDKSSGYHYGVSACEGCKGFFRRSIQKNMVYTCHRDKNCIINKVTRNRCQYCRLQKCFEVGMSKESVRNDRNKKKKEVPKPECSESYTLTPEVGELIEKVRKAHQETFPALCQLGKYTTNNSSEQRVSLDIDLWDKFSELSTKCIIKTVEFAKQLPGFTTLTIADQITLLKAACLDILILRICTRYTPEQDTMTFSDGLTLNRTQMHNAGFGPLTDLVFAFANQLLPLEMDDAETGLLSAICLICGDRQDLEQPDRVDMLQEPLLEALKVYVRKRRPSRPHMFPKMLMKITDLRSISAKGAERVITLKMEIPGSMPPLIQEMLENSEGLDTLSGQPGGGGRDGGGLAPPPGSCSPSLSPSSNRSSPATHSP
RARa:RXRa, sequence (P19793 whole entry, chain 2 of 2): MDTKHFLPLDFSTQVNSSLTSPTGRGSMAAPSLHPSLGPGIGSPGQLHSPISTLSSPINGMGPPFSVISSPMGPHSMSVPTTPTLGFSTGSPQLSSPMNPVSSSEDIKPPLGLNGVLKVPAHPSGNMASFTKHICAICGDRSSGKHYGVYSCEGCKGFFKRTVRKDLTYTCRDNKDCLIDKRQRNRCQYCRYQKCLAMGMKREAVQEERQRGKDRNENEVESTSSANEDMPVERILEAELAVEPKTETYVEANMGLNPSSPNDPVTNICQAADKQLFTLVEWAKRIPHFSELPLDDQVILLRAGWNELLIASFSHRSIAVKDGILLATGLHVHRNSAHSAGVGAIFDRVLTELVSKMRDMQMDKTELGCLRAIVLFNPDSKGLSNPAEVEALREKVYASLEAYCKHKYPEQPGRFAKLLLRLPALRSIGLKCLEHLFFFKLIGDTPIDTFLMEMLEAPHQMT
Procedure, shortened: (§1)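 Probes were double-stranded and carried 34-nt variable regions with direct-repeat seeds, single-nucleotide variants, half-site ablations and random human genomic background sequences, printed on custom Agilent 4×180K protein-binding microarrays. Arrays were incubated 1 h with ligand-free nuclear receptor dimers in PBS pH 7.4, 2% milk, 0.02% Triton X-100, 1 mM DTT, 0.2 mg/mL BSA and 0.4 mg/ml salmon testes DNA. Antibodies against each partner (one per run) detected binding, and scanned fluorescence was regression-normalized. Binding z-scores use the random background probes as reference.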

PXR:RXRa = PXR:RXRa (Homo sapiens, UniProt O75469;P19793 full;full); assay: as above; details: tags: His kept;His cleaved; copies: 1;1; label: surface-attached array probe
PXR:RXRa, sequence (O75469 whole entry, chain 1 of 2): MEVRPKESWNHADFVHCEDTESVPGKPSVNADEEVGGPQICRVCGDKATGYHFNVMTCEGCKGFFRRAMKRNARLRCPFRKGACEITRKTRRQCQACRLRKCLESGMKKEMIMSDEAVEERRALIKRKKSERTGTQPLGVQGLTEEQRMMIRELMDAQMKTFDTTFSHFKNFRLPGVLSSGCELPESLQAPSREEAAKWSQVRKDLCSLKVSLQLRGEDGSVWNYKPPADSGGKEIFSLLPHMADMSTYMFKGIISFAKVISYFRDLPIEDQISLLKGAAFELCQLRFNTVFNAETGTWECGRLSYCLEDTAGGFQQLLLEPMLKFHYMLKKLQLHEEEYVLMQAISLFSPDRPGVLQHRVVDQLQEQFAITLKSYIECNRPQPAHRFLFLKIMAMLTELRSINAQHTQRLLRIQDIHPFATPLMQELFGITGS
PXR:RXRa, sequence (P19793 whole entry, chain 2 of 2): as the sequence (P19793 whole entry, chain 2 of 2) above
Procedure, shortened: as §1

RARb:RXRa = RARb:RXRa (Homo sapiens, UniProt P10826;P19793 full;full); assay: as above; details: tags: His kept;His cleaved; copies: 1;1; label: surface-attached array probe
Procedure, shortened: as §1

VDR:RXRa = VDR:RXRa (Homo sapiens, UniProt P11473;P19793 full;full); assay: as above; details: tags: His kept;His cleaved; copies: 1;1; label: surface-attached array probe
VDR:RXRa, sequence (P11473 whole entry, chain 1 of 2): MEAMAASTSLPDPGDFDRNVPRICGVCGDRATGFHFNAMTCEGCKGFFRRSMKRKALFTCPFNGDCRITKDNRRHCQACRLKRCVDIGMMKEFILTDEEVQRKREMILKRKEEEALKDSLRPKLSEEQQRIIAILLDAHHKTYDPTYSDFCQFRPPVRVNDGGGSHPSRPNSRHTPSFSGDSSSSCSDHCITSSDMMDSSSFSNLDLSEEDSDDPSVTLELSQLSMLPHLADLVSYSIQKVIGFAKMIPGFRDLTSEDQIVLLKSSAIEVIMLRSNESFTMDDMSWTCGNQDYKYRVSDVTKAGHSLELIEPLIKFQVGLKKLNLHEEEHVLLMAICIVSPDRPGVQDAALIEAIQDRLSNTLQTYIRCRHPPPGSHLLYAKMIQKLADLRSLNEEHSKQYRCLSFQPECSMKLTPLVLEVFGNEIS
VDR:RXRa, sequence (P19793 whole entry, chain 2 of 2): as the sequence (P19793 whole entry, chain 2 of 2) above
Procedure, shortened: as §1

RARg:RXRa = RARg:RXRa (Homo sapiens, UniProt P13631;P19793 full;full); assay: as above; details: tags: His kept;His cleaved; copies: 1;1; label: surface-attached array probe
Procedure, shortened: as §1

LXRa:RXRa = LXRa:RXRa (Homo sapiens, UniProt Q13133;P19793 full;full); assay: as above; details: tags: His kept;His cleaved; copies: 1;1; label: surface-attached array probe
LXRa:RXRa, sequence (Q13133 whole entry, chain 1 of 2): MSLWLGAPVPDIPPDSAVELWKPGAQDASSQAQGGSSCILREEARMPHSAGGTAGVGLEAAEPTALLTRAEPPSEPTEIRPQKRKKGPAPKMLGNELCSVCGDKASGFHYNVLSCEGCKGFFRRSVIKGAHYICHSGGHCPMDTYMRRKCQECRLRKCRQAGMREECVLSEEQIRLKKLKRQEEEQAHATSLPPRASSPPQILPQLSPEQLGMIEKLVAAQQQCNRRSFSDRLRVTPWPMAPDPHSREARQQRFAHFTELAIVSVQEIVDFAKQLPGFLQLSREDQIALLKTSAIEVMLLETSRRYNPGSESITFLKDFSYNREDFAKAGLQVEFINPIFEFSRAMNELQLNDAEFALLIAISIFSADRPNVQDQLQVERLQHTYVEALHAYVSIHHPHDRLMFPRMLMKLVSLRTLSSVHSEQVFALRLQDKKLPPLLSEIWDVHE
LXRa:RXRa, sequence (P19793 whole entry, chain 2 of 2): as the sequence (P19793 whole entry, chain 2 of 2) above
Procedure, shortened: as §1

PPARa:RXRa = PPARa:RXRa (Homo sapiens, UniProt Q07869;P19793 full;full); assay: as above; details: tags: GST kept;His cleaved; copies: 1;1; label: surface-attached array probe
PPARa:RXRa, sequence (Q07869 whole entry, chain 1 of 2): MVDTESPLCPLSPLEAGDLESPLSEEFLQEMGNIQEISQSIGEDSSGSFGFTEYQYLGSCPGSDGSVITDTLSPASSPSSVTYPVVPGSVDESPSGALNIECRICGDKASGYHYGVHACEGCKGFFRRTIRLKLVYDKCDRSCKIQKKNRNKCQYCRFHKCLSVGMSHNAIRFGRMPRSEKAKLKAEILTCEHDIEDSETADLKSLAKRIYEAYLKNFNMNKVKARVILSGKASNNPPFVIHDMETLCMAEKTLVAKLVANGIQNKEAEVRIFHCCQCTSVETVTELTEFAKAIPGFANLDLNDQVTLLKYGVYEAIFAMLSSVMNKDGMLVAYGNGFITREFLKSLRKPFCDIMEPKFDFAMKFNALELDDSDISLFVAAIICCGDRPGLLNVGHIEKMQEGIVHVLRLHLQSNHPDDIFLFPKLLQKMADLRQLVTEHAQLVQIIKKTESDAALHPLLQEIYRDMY
PPARa:RXRa, sequence (P19793 whole entry, chain 2 of 2): as the sequence (P19793 whole entry, chain 2 of 2) above
Procedure, shortened: as §1

LXRb:RXRa = LXRb:RXRa (Homo sapiens, UniProt P55055;P19793 full;full); assay: as above; details: tags: His kept;His cleaved; copies: 1;1; label: surface-attached array probe
Procedure, shortened: as §1

FXR:RXRa = FXR:RXRa (Homo sapiens, UniProt Q96RI1;P19793 full;full); assay: as above; details: tags: His kept;His cleaved; copies: 1;1; label: surface-attached array probe
Procedure, shortened: as §1

RXRa = RXRa (Homo sapiens, UniProt P19793); assay: no ligand; PBM; 180 nM; PBS pH 7.4, 2% milk, 0.02% Triton X-100, 1 mM DTT, BSA, 0.4 mg/ml salmon testes DNA; details: tags: His cleaved; chain copies: 2; label: surface-attached array probe

| Binder | binding signal (THRa:RXRa) | binding signal (RARa:RXRa) | binding signal (PXR:RXRa) | binding signal (RARb:RXRa) | binding signal (VDR:RXRa) | binding signal (RARg:RXRa) | binding signal (LXRa:RXRa) | binding signal (PPARa:RXRa) | binding signal (LXRb:RXRa) | binding signal (FXR:RXRa) | binding signal (RXRa) |
| --- | --- | --- | --- | --- | --- | --- | --- | --- | --- | --- | --- |
| NRC3_random_hg19_257_o1 (dsDNA) DNA 1: GCACACTGACAATAGCATACACCTTTCCAGAATGCGGCGATTGACAGCGTAGAATGAAGG DNA 2: CCTTCATTCTACGCTGTCAATCGCCGCATTCTGGAAAGGTGTATGCTATTGTCAGTGTGC | 0.05 PBM z-score against 500 random probes | 0.41 PBM z-score against 500 random probes | 0.17 PBM z-score against 500 random probes |  |  |  |  |  |  |  |  |
| NRC3_wobSeed141_DR5_A24C_o1 (dsDNA) DNA 1: GCAGTCAAAGTTCAGGACGAGGTCACGTAAAGCACGGCGATTGACAGCGTAGAATGAAGG DNA 2: CCTTCATTCTACGCTGTCAATCGCCGTGCTTTACGTGACCTCGTCCTGAACTTTGACTGC | 5.13 PBM z-score against 500 random probes | 7.52 PBM z-score against 500 random probes | 6.95 PBM z-score against 500 random probes | 5.48 PBM z-score against 500 random probes | 6.63 PBM z-score against 500 random probes | 8.19 PBM z-score against 500 random probes |  |  |  |  |  |
| NRC3_wobSeed49_DR2_T8A_o1 (dsDNA) DNA 1: GCCAAACAAGGTCAAGAGGTCAAAGTCCGCTTCCCGGCGATTGACAGCGTAGAATGAAGG DNA 2: CCTTCATTCTACGCTGTCAATCGCCGGGAAGCGGACTTTGACCTCTTGACCTTGTTTGGC | 4.99 PBM z-score against 500 random probes | 9.05 PBM z-score against 500 random probes | 7.38 PBM z-score against 500 random probes | 6.31 PBM z-score against 500 random probes | 7.22 PBM z-score against 500 random probes | 9.11 PBM z-score against 500 random probes | 7.44 PBM z-score against 500 random probes | 7.02 PBM z-score against 500 random probes | 6.73 PBM z-score against 500 random probes | 8.52 PBM z-score against 500 random probes | 9.65 PBM z-score against 500 random probes |
| NRC3_random_hg19_138_o1 (dsDNA) DNA 1: GCTAGGTTCTCAGAGTAAGAAGTCCATGTTGGTTAGGCGATTGACAGCGTAGAATGAAGG DNA 2: CCTTCATTCTACGCTGTCAATCGCCTAACCAACATGGACTTCTTACTCTGAGAACCTAGC | 0.16 PBM z-score against 500 random probes | -0.25 PBM z-score against 500 random probes |  |  |  |  |  |  | 0.28 PBM z-score against 500 random probes | 0.34 PBM z-score against 500 random probes |  |
| NRC3_wobSeed121_DR5_T8A_o1 (dsDNA) DNA 1: GCCAAACAAGGTCACCGGAAGGTCAAAGTCCGCATGGCGATTGACAGCGTAGAATGAAGG DNA 2: CCTTCATTCTACGCTGTCAATCGCCATGCGGACTTTGACCTTCCGGTGACCTTGTTTGGC | 5.05 PBM z-score against 500 random probes | 8.86 PBM z-score against 500 random probes | 7.43 PBM z-score against 500 random probes | 6.21 PBM z-score against 500 random probes | 7.25 PBM z-score against 500 random probes | 9.36 PBM z-score against 500 random probes | 7.26 PBM z-score against 500 random probes |  | 7.08 PBM z-score against 500 random probes | 8.52 PBM z-score against 500 random probes | 8.89 PBM z-score against 500 random probes |
| NRC3_wobSeed133_DR5_T19G_o1 (dsDNA) DNA 1: GCCGTCCAAGGTCAATGCGAGGTCAGTGAAAGCATTGCGATTGACAGCGTAGAATGAAGG DNA 2: CCTTCATTCTACGCTGTCAATCGCAATGCTTTCACTGACCTCGCATTGACCTTGGACGGC | 5.07 PBM z-score against 500 random probes | 7.03 PBM z-score against 500 random probes | 6.42 PBM z-score against 500 random probes |  |  | 8.33 PBM z-score against 500 random probes |  |  |  |  |  |
| NRC3_wobSeed72_DR2_G20T_o1 (dsDNA) DNA 1: GCTCGAGTAGGTTACGGGGTCATTCAGGGATGAAGAGCGATTGACAGCGTAGAATGAAGG DNA 2: CCTTCATTCTACGCTGTCAATCGCTCTTCATCCCTGAATGACCCCGTAACCTACTCGAGC | 4.85 PBM z-score against 500 random probes | 7.48 PBM z-score against 500 random probes | 6.49 PBM z-score against 500 random probes |  |  |  |  |  |  |  |  |
| NRC3_wobSeed25_DR1_T8A_o1 (dsDNA) DNA 1: GCCAAACAAGGTCAAAGGTCAAAGTCGAGCCAACCAGCGATTGACAGCGTAGAATGAAGG DNA 2: CCTTCATTCTACGCTGTCAATCGCTGGTTGGCTCGACTTTGACCTTTGACCTTGTTTGGC | 5.07 PBM z-score against 500 random probes | 9.67 PBM z-score against 500 random probes | 7.73 PBM z-score against 500 random probes | 6.19 PBM z-score against 500 random probes | 7.62 PBM z-score against 500 random probes | 9.65 PBM z-score against 500 random probes | 8.24 PBM z-score against 500 random probes |  | 8.13 PBM z-score against 500 random probes | 9.54 PBM z-score against 500 random probes | 11.2 PBM z-score against 500 random probes |
| NRC3_wobSeed25_DR1_T8G_o1 (dsDNA) DNA 1: GCCAAACGAGGTCAAAGGTCAAAGTCGAGCCAACCAGCGATTGACAGCGTAGAATGAAGG DNA 2: CCTTCATTCTACGCTGTCAATCGCTGGTTGGCTCGACTTTGACCTTTGACCTCGTTTGGC | 5.46 PBM z-score against 500 random probes | 9.62 PBM z-score against 500 random probes | 7.89 PBM z-score against 500 random probes | 6.33 PBM z-score against 500 random probes | 8.02 PBM z-score against 500 random probes | 9.68 PBM z-score against 500 random probes | 8.54 PBM z-score against 500 random probes |  | 8.31 PBM z-score against 500 random probes | 9.93 PBM z-score against 500 random probes | 11 PBM z-score against 500 random probes |
| NRC3_random_hg19_360_o1 (dsDNA) DNA 1: GCGCCTGCATAGCCATTCACAGACACTGCCAATACCGCGATTGACAGCGTAGAATGAAGG DNA 2: CCTTCATTCTACGCTGTCAATCGCGGTATTGGCAGTGTCTGTGAATGGCTATGCAGGCGC | -0.43 PBM z-score against 500 random probes | -0.36 PBM z-score against 500 random probes |  |  |  |  |  | -0.57 PBM z-score against 500 random probes | -0.18 PBM z-score against 500 random probes |  | -0.49 PBM z-score against 500 random probes |
| NRC3_wobSeed73_DR3_T8G_o1 (dsDNA) DNA 1: GCCAAACGAGGTCACAGAGGTCAAAGTCCGTGCGTAGCGATTGACAGCGTAGAATGAAGG DNA 2: CCTTCATTCTACGCTGTCAATCGCTACGCACGGACTTTGACCTCTGTGACCTCGTTTGGC | 5.25 PBM z-score against 500 random probes | 9.08 PBM z-score against 500 random probes | 8.14 PBM z-score against 500 random probes | 5.94 PBM z-score against 500 random probes | 8.86 PBM z-score against 500 random probes | 8.72 PBM z-score against 500 random probes | 7.82 PBM z-score against 500 random probes | 7.16 PBM z-score against 500 random probes | 7.74 PBM z-score against 500 random probes | 9.18 PBM z-score against 500 random probes | 9.83 PBM z-score against 500 random probes |
| NRC3_wobSeed73_DR3_T8C_o1 (dsDNA) DNA 1: GCCAAACCAGGTCACAGAGGTCAAAGTCCGTGCGTAGCGATTGACAGCGTAGAATGAAGG DNA 2: CCTTCATTCTACGCTGTCAATCGCTACGCACGGACTTTGACCTCTGTGACCTGGTTTGGC | 5.06 PBM z-score against 500 random probes | 8.19 PBM z-score against 500 random probes |  |  | 8.47 PBM z-score against 500 random probes |  |  |  | 6.76 PBM z-score against 500 random probes | 8 PBM z-score against 500 random probes |  |
| NRC3_wobSeed100_DR4_C12T_o1 (dsDNA) DNA 1: GCCCTACTGGGTCACGAAAGGTCATTGATTCAGTGAGCGATTGACAGCGTAGAATGAAGG DNA 2: CCTTCATTCTACGCTGTCAATCGCTCACTGAATCAATGACCTTTCGTGACCCAGTAGGGC | 5.47 PBM z-score against 500 random probes | 7.1 PBM z-score against 500 random probes | 7.22 PBM z-score against 500 random probes | 5.53 PBM z-score against 500 random probes |  |  | 8.11 PBM z-score against 500 random probes |  | 6.66 PBM z-score against 500 random probes |  |  |
| NRC3_wobSeed101_DR4_C8G_o1 (dsDNA) DNA 1: GCCCTTAGGGGTCACTCCAGGTTATAGCATCGGAGTGCGATTGACAGCGTAGAATGAAGG DNA 2: CCTTCATTCTACGCTGTCAATCGCACTCCGATGCTATAACCTGGAGTGACCCCTAAGGGC | 5.63 PBM z-score against 500 random probes | 7.45 PBM z-score against 500 random probes | 7.15 PBM z-score against 500 random probes |  | 6.64 PBM z-score against 500 random probes | 7.43 PBM z-score against 500 random probes | 8.6 PBM z-score against 500 random probes | 6.76 PBM z-score against 500 random probes | 7.21 PBM z-score against 500 random probes | 8.32 PBM z-score against 500 random probes | 8.62 PBM z-score against 500 random probes |
| NRC3_wobSeed117_DR4_A23C_o1 (dsDNA) DNA 1: GCCGTCAAAGTTCAACTAAGGTCACGTAAAGCACGCGCGATTGACAGCGTAGAATGAAGG DNA 2: CCTTCATTCTACGCTGTCAATCGCGCGTGCTTTACGTGACCTTAGTTGAACTTTGACGGC | 5.72 PBM z-score against 500 random probes | 7.16 PBM z-score against 500 random probes | 7.87 PBM z-score against 500 random probes | 6.07 PBM z-score against 500 random probes | 7.49 PBM z-score against 500 random probes | 7.95 PBM z-score against 500 random probes | 8.08 PBM z-score against 500 random probes |  | 7.09 PBM z-score against 500 random probes | 7.83 PBM z-score against 500 random probes |  |
